B1: Promoter of RAFL06-07-B19: environmental stress responsive promoter DNA, SEQ ID NO: 4, upstream of At3g11410 (AHG3 gene) (nucleic acid, listed as Arabidopsis thaliana)
DNA: CCCGAACTTAACCCAAATGCCCACCTTTAATTATTCAAAACCAAAAAAGAAGTGTTTGATGCTGAGGTTTGAACTCATCAGATACACGTAACTATTTTCCAATTTATTTTCGTTTATGTGCATTTCAGAATTTCAAGCATAAATATACTCTTATTGTTTAAACATTTCAAATTGCATGTGTGAAATAATATCAGAGTTAGAATATATGTTAATCTTCTCTTCTCCTAGATTCAGTTAGATACGTTTCTATCTTCTTTTAGGCAACATCTCTTGTACAAATAGTCTCTTTGGCAATTCAATACAATCAACCTTTTACGATATATATATTTGTTATTTCTTGTACAAATAGGATCAAAATTGTTATTTCTGAAGCAAATTTTCTTTAGTTTGGATGTCAATTATATCCTCGATTAATATGTAATCACGGAACGGATTCACGATGCGTTATTTTAGAAGCAAATTTATACTTGATAGTACGTTCAGAGGCATCGCTTTTGTACAAATTGAAGCGGGTTTGTTCAATATTTAAAATAACACAGGAAACATTCAAATGTATTATTGATGTTGCTTAGGTTTGTGAAATGATATGAACCATATCGTATATATTACTAGATTTTTCTTATATGTTTTAAGGGTAGTGGGGCTGACCTATCATTCTGTTTGGCATTACCAATCAGACTATCAGAGTATTCACCATTCAGGATTCCATAACTAGAAAAAGAAGGGGTTTACATTTTCTCATACTGTATAATTTTCTACTATCAGAGATTTTATCGATTACATTAATCTCATAGTGATTATTCTGATTTATAAAAAAGTTGACAAAATAATTAAAACCAGTATTTTATAACAAGATTGTCTCTCTCCCATGGCCATTATTTTGACCTCTGACTTATTTAAATCTTAATTAACAGCATAATACTGTATTAAGCGTATTTAAATGAAACAAAATAAAAGAAAAAAAGAACAAAACGAAAGAGTGGACCACATGCGTGTCAAGAAAGGCCGGTCGTTACCGTTAAGGTGTGTCGAACTGTGATTGGGCCACGTTAACGGCGTATCCAAAAGAAAGAAAGGGCACGTGTATAGATCTAGGAAAAAAGAAAGAATGGACGGTTTAGATTGTATCTAGGTACCAGGAAATGGAACGTCACACCAAACGGTACGTGTCGGATCCTGCCCGTTGATGCTGACGGTCAGCAACTTCCCCTTATTCATGCCCCCCTGCCCGTTAATTACGTGTAACCCTTCCATGCGAAAATCAAACCCTTTTTTTTTTTTGCGTTCTTCTTCAACTTTTCTTTTTAAATCAAACCTTTTCTTTTTAAAATCACATTGCATTTCCTAACGCTCAACAAAATCTCTCTCTACTAATATCTCTCTCTCTCTCTCTCTATTGTTGAAGAAGACTCATAATCGGAGATTGTTTGTTTTTGGTTTGCTCTGTAAATTGGAGAAGTTTTGTTAGAGATCAA
B2: Promoter of RAFL05-18-I12: environmental stress responsive promoter DNA, SEQ ID NO: 2, upstream of At2g47770 (homolog of benzodiazepine receptor) (nucleic acid, listed as Arabidopsis thaliana)
DNA: ACCATGGCACCTGAAATACGTAAGGATACAAGAAGAGATATCATCACTGAATTCACTAAAATCACTCCCATCATAAACAGACAAATCAAAACCAAAATATTGTTCATTAACATCGTAAATGGACAACGCTTGACAACGTCTACAAATACTTGATGAAAAGAGATAAGAAATAAGTCTTCATTTATACCACATCAGTCTTCACGTAGATGATCAAGACGATCCCCAGATTGACAATGTAGAGAACACCAAAAAGAATCTGCAAAATGTAAGAGAGTAGAATTGAGACAAATGAAGCGATGGATGGATCAAATTCCGCAGCTAATCCAAAGATAGGAGATTCAAAGAGAGGGAATTGCAAGCACCTGAGCAGGGTAGACTTCCCCTCCAGTTAAGTTCTGCACTGCAGAGTAAACATAGAGGAAACCTGCTGGATAAACCAATGGCCCTGTATCGCCTTTCAAGTTCCCATAGTCTCTCTCTCCCCCGAGAAACCCACTAACCTGCCCCAATTAGATAAATTTCACTTAAAGACTACTAGTTTACTTTGAAGAAACCACAGTTGACCATTGACACTTACCTGTGACATGTAAGCATCCCAATCGATCTTCGTGTCTGTTAAAGGCAAATGACGAAATTTGGTTTAAAACCTATGCAAATGCACATTTCGAGGGATACGCAAGCAAAAAAAAAAAGGAGGTAAATAGCTCTCACATGGAACATAGGCGATAATAAGTGCGACTAGGATTGCATCAGCAAGAATTAGCGCGAATGCGAATGGAACTGCAGGTTTTTTGAATAGATCGGATCGATTCGTCTCCTTCCCCAGCCGACGGCTACGAGAAGCTCTCAAACTCGCCGGTGATGAGGCGCCCGCCATGAAAACAGAGCAAATCGCATCAGCGTCTAGCCAACGCCGCGTAACAGACAACTACTTCCATATTACTACTCTTCTAATTAGCCCAAATTAAATGAGCCTATTGGGCTTCTTGTCTTAGTCGGTGTAGAGCCCAATTGTTGTTTTATTTTTTAATAATGCAAAAGTATTAAGCGATAAATAAATAAGCATCGCAATCGTCCCAAAACTGTGTGTATGCATCAGACATGAGCATATAGAGTAAGCACGTGTCCACACTTTTTCACAAAGTTATCTAAAAACAAAAAACAATTAATTAGCATTCGACGTGTACATATCACTCGCCACGTGTACAAGAGCCTTGGCCTTTTTGCTTCTTCTTCTTGTCTATTAATATCATCTCCTGATTATACTCTCTTTTGACCAAGCTGCTTCTTCTCCATCTATCCAACATCTCAAATCTCAGTAATCTTGTTCCTTCGATTCTGTTTTGGACGTTTGTA

Assays:
[1] = system: Arabidopsis thaliana (columbia ecotype) plant body; assay: full-length cDNA microarray analysis of gene expression levels after environmental stress application; details: in vivo
Method: In this example, the gene expression levels at the time of application of various types of environmental stresses were analyzed using microarrays. Specifically, the microarrays described in Seki et al., “Monitoring the expression profiles of 7000 Arabidopsis genes under drought, cold, and high-salinity stresses using a full-length cDNA microarray,” Plant J. 31: 279-292, 2002, were used, and analysis was carried out in accordance with the method similar to the method described therein. Various types of environmental stresses were applied to a plant body under the following conditions. Specifically, low-temperature stress application was carried out by introducing a plate containing a plant body into a low-temperature chamber (4° C.). Dehydration stress application was carried out by capturing the plant body with forceps while refraining from damaging the plant body, roughly removing moisture from the plant body on a Kim Towel, placing the plant body on another plate, placing the plate in a clean bench while leaving the lid open, letting it stand for 2 hours, and then closing the lid. Salt stress application was carried out by dispensing a mixture of MS medium (containing 1% sucrose, 0.1% agar, and 1 mM luciferin) with 250 mM NaCl to the roots of the plant bodies (200 μl per plant body) using a Pipetman. ABA stress application was carried out by dispensing a mixture of MS medium (containing 1% sucrose, 0.1% agar, and 1 mM luciferin) with 100 μM ABA to the roots of the plant bodies (200 μl per plant body) using a Pipetman. As a plant body to which environmental stress is to be applied, Arabidopsis thaliana (columbia ecotype), which had been cultivated on a germination medium containing Murashige and Skoog Salt, 3% sucrose, and […] for 3 weeks, was used. Cultivation conditions were determined so as to maintain the temperature in the chamber at 22° C. with a 16-hour light period and an 8-hour dark period. Total RNA was extracted from plant bodies after environmental stress application or from plant bodies to which no environmental stress had been applied using the TRIZOL Reagent (Life Technologies), and mRNA was extracted using the mRNA isolation kit (Militenyi Biotec Auburn). In accordance with the method described in the above article, mRNA samples were reversely transcribed in the presence of Cy3 dUTP or Cy5 dUTP (Amersham Pharmacia). Microarray analysis was carried out using cDNAs obtained via reverse transcription. Data obtained via microarray analysis were analyzed using the Quantarray Version 2.0 (GSI Lumonics).

[2] = system: transgenic Arabidopsis thaliana plant body (luciferase reporter gene); assay: luciferase assay of promoter::LUC transgenic plants after environmental stress application; type: in vivo; details: for Tissue allowing specific induction: summary over stress types
Method: Specifically, promoter regions were isolated from these genes, transgenic plants in which luciferase reporter genes were to be expressed under the control of such promoters were prepared, and tissue specificity of the promoters was inspected via luciferase assay.
In this example, DNA fragments containing promoter regions of the genes identified in Example 1 were recovered via PCR.
The nucleotide sequences of the amplified DNA fragments were determined in accordance with a conventional technique to confirm that mutagenesis, such as substitution or deletion, was not introduced thereinto. After the absence of mutagenesis was confirmed, the recovered DNA fragments were introduced into the vector for promoter analysis (i.e., a vector prepared by introducing the Gateway recombinant sequence (tradename: Gateway Vector Conversion System, Invitrogen) and the luciferase reporter gene into the pGreen vector (Plant Molecular Biology 42: 819-832, 2000)) using the Gateway recombination system to construct a recombinant vector.
The recombinant vector prepared in (1) above was introduced into a plant via Agrobacterium infection. When a gene is introduced via Agrobacterium infection, a process of infecting a plant with Agrobacterium containing a plasmid comprising the target gene construct is necessary. This process was carried out via vacuum infiltration. Specifically, a plant body of Arabidopsis thaliana that had been grown in soil comprising vermiculite and an equivalent amount of pearlite was soaked in a culture solution of Agrobacterium containing the recombinant vector prepared in (1). The resultant was placed in a desiccator, suctioned with a vacuum pump to 65 to 70 mmHg, and then allowed to stand at room temperature for 5 to 10 minutes. The pot was transferred onto a tray, covered with a wrap, and kept moistened. The wrap was removed on the following day, the plant was allowed to grow in that state, and seeds were then harvested.
Subsequently, seeds were sown on MS agar medium to which antibiotic hygromycin has been added in order to select an individual having the recombinant vector prepared in (1). Arabidopsis thaliana that had been grown in this medium was transferred to a pot and allowed to grow therein. Thus, seeds of transgenic plants to which the recombinant vector prepared in (1) has been introduced were obtained.
The seeds of the transgenic plant lineage prepared in (2) were sowed on MS agar medium. The plant body 10 days after sowing was used for luciferase assay.
At the outset, 1 mM luciferin (containing 0.01% Triton-X) was sprayed over the entire plant body 5 times. After the plant body was allowed to stand in the dark for 5 minutes, luciferase luminescence was assayed using ARGUS (assay after treatment for 0 hours). Subsequently, various types of environmental stresses were applied (see below). Low-temperature stress application was carried out by introducing a plate containing a plant body into a low-temperature chamber (4° C.). Dehydration stress application was carried out by capturing the plant body with forceps while refraining from damaging the plant body, roughly removing moisture from the plant body on a Kim Towel, placing the plant body on another plate, placing the plate in a clean bench while leaving the lid open, letting it stand for 2 hours, and then closing the lid. Salt stress application was carried out by dispensing a mixture of MS medium (containing 1% sucrose, 0.1% agar, and 1 mM luciferin) with 250 mM NaCl to the roots of the plant bodies (200 μl per plant body) using a Pipetman. ABA stress application was carried out by dispensing a mixture of MS medium (containing 1% sucrose, 0.1% agar, and 1 mM luciferin) with 100 μM ABA to the roots of the plant bodies (200 μl per plant body) using a Pipetman.
Luciferase luminescence was assayed 2, 5, and 10 hours after the above various types of environmental stresses had been applied using the ARGUS system (Hamamatsu Photonics). […]

| Molecule | Environmental stress type to which the promoter responds [1] | Tissue in which specific induction of expression is realized ([2]; ABA stress (100 μM ABA)) | Tissue in which specific induction of expression is realized ([2]; ABA stress (100 μM ABA), listed as promoter of RAFL06-07-B19) | Tissue in which specific induction of expression is realized ([2]; Dehydration stress) | Tissue in which specific induction of expression is realized ([2]; Dehydration stress, listed as promoter of RAFL06-07-B19) | tissue in which expression is induced ([2]; dehydration stress applied for 5 hours) | tissue in which expression is induced ([2]; dehydration stress applied for 10 hours) | tissue in which expression is induced ([2]; dehydration stress applied for 10 hours, listed as promoter of RAFL06-07-B19) | Tissue allowing specific induction [2] | activity to induce gene expression ([2]; 5 hours after dehydration stress application) | Tissue in which specific induction of expression is realized ([2]; Dehydration stress, listed as promoter of RAFL05-18-I12) |
| --- | --- | --- | --- | --- | --- | --- | --- | --- | --- | --- | --- |
| B1 | Dehydration, salt, | Root tissue | root tissue | Stem and leaf tissue and root tissue*^1 | stem and leaf tissue and root tissue | stem and leaf tissue and root tissue | leaf tissue and root tissue | lowered activity to induce gene expression in stem tissue and root tissue but to induce gene expression in leaf tissue | Stem and leaf tissue and root tissue | – | – |
| B2 | Dehydration and salt | – | – | Stem and leaf tissue and root tissue | – | – | – | – | Stem and leaf tissue and root tissue | strong activity | stem and leaf tissue and root tissue |

— US20090282582A1, “ENVIRONMENTAL STRESS RESPONSIVE PROMOTER AND METHOD OF TISSUE-SPECIFIC GENE EXPRESSION USING THE SAME” (RIKEN, priority 2006, published 2009)
